In publication PMC3470543, “Effects of the Missense Mutations in Canine BRCA2 on BRC Repeat 3 Functions and Comparative Analyses between Canine and Human BRC Repeat 3” (PLoS ONE, 2012):
Substitutions are numbered along the chain they refer to. Numbers in names are those of the source.

T1: recombinant full-length human RAD51 (Bio Academia) (human, UniProt Q06609 1-339)
T1 construct: human RAD51 recombinase, recombinant full-length protein; also called hRAD51; source: bought: Bio Academia
T1 sequence (looked up): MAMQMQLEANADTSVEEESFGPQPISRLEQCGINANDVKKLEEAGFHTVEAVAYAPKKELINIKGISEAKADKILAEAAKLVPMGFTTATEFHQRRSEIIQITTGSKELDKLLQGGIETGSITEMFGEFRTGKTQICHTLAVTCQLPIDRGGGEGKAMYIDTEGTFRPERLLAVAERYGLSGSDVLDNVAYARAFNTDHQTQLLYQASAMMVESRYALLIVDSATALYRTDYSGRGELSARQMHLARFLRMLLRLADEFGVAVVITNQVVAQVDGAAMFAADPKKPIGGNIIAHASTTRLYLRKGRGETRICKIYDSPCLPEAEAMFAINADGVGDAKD

B1: GST-fused wild-type canine BRC3 (cBRC3) (aa 1410-1482) peptide (domain or fragment, UniProt Q8MKI9 1410-1482, looked up)
chain: GQNIKDFDTFYLSFQTASRKNIRVSKESLNKARSLLNQKWTEEELNNFSDSLNSELLPGIDIKKTDISNHEVI
notes: BRC repeat 3 region of canine BRCA2, aa 1410-1482; also called GST-cBRC3; wild-type cBRC3; source: Rosetta II cells (pGEX6p-1), purified (glutathione sepharose 4B)
B2: GST-fused K1435R mutant canine BRC3 (aa 1410-1482) peptide (domain or fragment, UniProt Q8MKI9 1410-1482, looked up)
chain: B1 chain with K26R
notes: BRC repeat 3 region of canine BRCA2, aa 1410-1482, with the mammary tumor-derived mutation K1435R; Mutation reported from canine mammary tumor samples; also called K1435R mutant cBRC3; GST-cBRC3 with the K1435R mutation; source: Rosetta II cells (pGEX6p-1), purified (glutathione sepharose 4B)

Target: T1, recombinant full-length human RAD51 …
Experiment: pull-down; 300 nM GST-fused peptides with 53.6 nM hRAD51 in 50 mM Tris pH 8.0, 150 mM NaCl, 1 mM EDTA, 1 mM DTT, 4°C, 1 h; captured on glutathione sepharose 4B; western blot with anti-RAD51
Conditions: both partners purified

| Binder | binding result |
| --- | --- |
| B1 | binds |
| B2 | binds |
